Test results as given in patent US20220177587A1, “METHODS AND USES OF VARIANT CD80 FUSION PROTEINS AND RELATED CONSTRUCTS” (Alpine Immune Sciences, Inc., priority 2018, published 2022).
Read-outs that look alike come from different tables or passages of the source.

Key:
PD-L1 (human) [1] = molecular target: PD-L1 (human) (UniProt Q9NZQ7)
Target sequence in this assay (Q9NZQ7 19-290): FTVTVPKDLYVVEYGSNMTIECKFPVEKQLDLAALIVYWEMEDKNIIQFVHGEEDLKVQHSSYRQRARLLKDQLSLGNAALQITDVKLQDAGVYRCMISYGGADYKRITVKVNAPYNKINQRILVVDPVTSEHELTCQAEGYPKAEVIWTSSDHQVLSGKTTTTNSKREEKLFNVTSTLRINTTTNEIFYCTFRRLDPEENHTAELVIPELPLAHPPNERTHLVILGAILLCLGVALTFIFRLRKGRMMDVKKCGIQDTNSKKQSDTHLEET

CD28 (human) [2] = molecular target: CD28 (human) (UniProt P10747)
CD28 (human) [3] = molecular target: CD28 (human) (UniProt P10747); remark: listed apart in the source
CD28 (human) [4] = molecular target: CD28 (human) (UniProt P10747); assay: flow cytometry, Jurkat cells (CD28)
human CTLA-4 (human) [5] = molecular target: human CTLA-4 (human) (UniProt P16410); assay: flow cytometry, CHO cells stably expressing CTLA4
Target sequence in this assay (P16410 36-223): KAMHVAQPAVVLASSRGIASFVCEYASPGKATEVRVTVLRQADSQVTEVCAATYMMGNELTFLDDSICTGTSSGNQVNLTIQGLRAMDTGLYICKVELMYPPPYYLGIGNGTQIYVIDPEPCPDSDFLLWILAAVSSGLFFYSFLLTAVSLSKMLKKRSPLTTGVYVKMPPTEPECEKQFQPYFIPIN

PD-L1 (human) [6] = molecular target: PD-L1 (human) (UniProt Q9NZQ7); assay: flow cytometry, CHO cells stably expressing PD-L1
Target sequence in this assay (Q9NZQ7 19-290): as the sequence (Q9NZQ7 19-290) above

[7] = molecular target: CD28, endogenously expressed on Jurkat/IL2 reporter cells (human) (UniProt P10747); assay: flow cytometry on Jurkat/IL2 reporter cells (endogenous CD28), 33.3 nM Fc fusion, PE anti-human Fc
[8] = molecular target: human PD-L1 (huPD-L1), on stably transduced CHO cells (human) (UniProt Q9NZQ7); assay: flow cytometry on CHO cells stably expressing huPD-L1, 33.3 nM Fc fusion, PE anti-human Fc
[9] = molecular target: human CTLA-4 (huCTLA4), on stably transduced CHO cells (human) (UniProt P16410); assay: flow cytometry on CHO cells stably expressing huCTLA4, 33.3 nM Fc fusion, PE anti-human Fc
CD28 (human) [10] = molecular target: CD28 (human) (UniProt P10747); assay: flow cytometry, Expi293F cells transfected with CD28
PD-L1 (human) [11] = molecular target: PD-L1 (human) (UniProt Q9NZQ7); assay: flow cytometry, CHO cells stably expressing PD-L1; remark: listed apart in the source
Target sequence in this assay (Q9NZQ7 19-290): as above

CD28 (human) [12] = molecular target: CD28 (human) (UniProt P10747); assay: flow cytometry, Jurkat cells (CD28); remark: listed apart in the source
human CTLA-4 (human) [13] = molecular target: human CTLA-4 (human) (UniProt P16410); assay: flow cytometry, CHO cells stably expressing CTLA4; remark: listed apart in the source
Target sequence in this assay (P16410 36-223): as the sequence (P16410 36-223) above

human CTLA-4 (human) [14] = molecular target: human CTLA-4 (human) (UniProt P16410); assay: flow cytometry, CHO cells expressing CTLA4
Target sequence in this assay (P16410 36-223): as above

PD-L1 (human) [15] = molecular target: PD-L1 (human) (UniProt Q9NZQ7); assay: flow cytometry, CHO cells stably expressing PD-L1; remark: listed apart in the source
Target sequence in this assay (Q9NZQ7 19-290): as the sequence (Q9NZQ7 19-290) above

PD-L1 (human) [16] = molecular target: PD-L1 (human) (UniProt Q9NZQ7); assay: flow cytometry, CHO cells expressing PD-L1
Target sequence in this assay (Q9NZQ7 19-290): as above

human CTLA-4 (human) [17] = molecular target: human CTLA-4 (human) (UniProt P16410); assay: flow cytometry, CHO cells stably expressing CTLA4; remark: listed apart in the source
Target sequence in this assay (P16410 36-223): as the sequence (P16410 36-223) above

CD28 (human) [18] = molecular target: CD28 (human) (UniProt P10747); assay: flow cytometry, Jurkat cells (CD28); remark: listed apart in the source
PD-L1 (human) [19] = molecular target: PD-L1 (human) (UniProt Q9NZQ7); assay: flow cytometry, CHO cells expressing huPD-L1
Target sequence in this assay (Q9NZQ7 19-290): as the sequence (Q9NZQ7 19-290) above

human CTLA-4 (human) [20] = molecular target: human CTLA-4 (human) (UniProt P16410); assay: flow cytometry, CHO cells expressing huCTLA4
Target sequence in this assay (P16410 36-223): as the sequence (P16410 36-223) above

PD-L1 (human) [21] = molecular target: PD-L1 (human) (UniProt Q9NZQ7); assay: flow cytometry, Expi293F cells transfected with PD-L1
human CTLA-4 (human) [22] = molecular target: human CTLA-4 (human) (UniProt P16410); assay: flow cytometry, Expi293F cells transfected with CTLA-4

Sequence of CD80 WT IgV-Fc (Fc fusion) (chain): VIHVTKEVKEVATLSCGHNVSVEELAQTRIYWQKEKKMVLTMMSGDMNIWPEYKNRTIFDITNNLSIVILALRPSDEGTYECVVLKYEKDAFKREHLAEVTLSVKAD
Sequence of human PD-L1 (huPD-L1), on stably transduced CHO cells (human) (Q9NZQ7 19-290): as the sequence (Q9NZQ7 19-290) above
Sequence of human CTLA-4 (huCTLA4), on stably transduced CHO cells (human) (P16410 36-223): as the sequence (P16410 36-223) above

CD80 E35D/D46V/L85Q IgV-Fc (effector) (Fc fusion)
Jurkat/IL2 reporter RLU at 50 nM, K562/OKT3/PD-L1 aAPC (PD-L1 (human) [1]): 4130 RLU
Jurkat/IL2 reporter RLU at 50 nM, K562/OKT3/PD-L1 aAPC (CD28 (human) [2]): 4130 RLU
Jurkat/IL2 reporter RLU at 50 nM, K562/OKT3 aAPC without PD-L1 (CD28 (human) [2]): 7020 RLU
IL-2 release, primary T cells + K562/OKT3 (No PD-L1), 100 nM (CD28 (human) [3]): 25400

CD80 A71D/L72V/E95K IgV-Fc (effector) (Fc fusion)
Jurkat/IL2 reporter RLU at 50 nM, K562/OKT3/PD-L1 aAPC (PD-L1 (human) [1]): 4030 RLU
Jurkat/IL2 reporter RLU at 50 nM, K562/OKT3/PD-L1 aAPC (CD28 (human) [2]): 4030 RLU
Jurkat/IL2 reporter RLU at 50 nM, K562/OKT3 aAPC without PD-L1 (CD28 (human) [2]): 7110 RLU
IL-2 release, primary T cells + K562/OKT3 (No PD-L1), 100 nM (CD28 (human) [3]): 21300

CD80 IgV-Fc H18Y/E35D/M47L/Y53F/V68M/A71G/K93R/E95V (Fc fusion)
MFI at 33.3 nM (CD28 (human) [4]): 2190 MFI
MFI at 33.3 nM (human CTLA-4 (human) [5]): 19800 MFI
MFI at 33.3 nM (PD-L1 (human) [6]): 9340 MFI

variant CD80 IgV-Fc E35D/M47V/N48K/L85M (Fc fusion)
MFI at 33.3 nM [7]: 413 MFI
MFI at 33.3 nM [8]: 5660 MFI

variant CD80 IgV-Fc H18Y/E35D/M47V/N48K (Fc fusion)
MFI at 33.3 nM [7]: 841 MFI
MFI at 33.3 nM [8]: 6460 MFI

CD80 E35G/K54E/A71D/L72P IgV-Fc (effector) (Fc fusion)
Jurkat/IL2 reporter RLU at 50 nM, K562/OKT3/PD-L1 aAPC (PD-L1 (human) [1]): 805 RLU
Jurkat/IL2 reporter RLU at 50 nM, K562/OKT3/PD-L1 aAPC (CD28 (human) [2]): 805 RLU
Jurkat/IL2 reporter RLU at 50 nM, K562/OKT3 aAPC without PD-L1 (CD28 (human) [2]): 1510 RLU

CD80 IgV-Fc H18Y/E35D/D46E/M47I/V68M/R94L (Fc fusion)
MFI at 33.3 nM (human CTLA-4 (human) [5]): 19200 MFI
MFI at 33.3 nM (PD-L1 (human) [6]): 2080 MFI

CD80 IgV-Fc H18Y/E35D/V68M/A71G/R94Q/E95V (Fc fusion)
MFI at 33.3 nM (CD28 (human) [4]): 455 MFI
Fold change to WT CD80 (human CTLA-4 (human) [5]): 18.6 fold
MFI at 33.3 nM (human CTLA-4 (human) [5]): 19400 MFI
Fold change to WT CD80 (PD-L1 (human) [6]): 25.9 fold
MFI at 33.3 nM (PD-L1 (human) [6]): 1840 MFI

variant CD80 IgV-Fc M43I/M47L/A71G (Fc fusion)
MFI at 33.3 nM [7]: 1000 MFI
MFI at 33.3 nM [9]: 23300 MFI
MFI at 33.3 nM [8]: 7760 MFI

variant CD80 IgV-Fc V22A/E35D/M47L/A71G (Fc fusion)
MFI at 33.3 nM [7]: 990 MFI
MFI at 33.3 nM [9]: 21900 MFI
MFI at 33.3 nM [8]: 8170 MFI

variant CD80 IgV-Fc E35D/M47I/N48K/I61F (Fc fusion)
MFI at 33.3 nM [7]: 816 MFI
MFI at 33.3 nM [9]: 25900 MFI
MFI at 33.3 nM [8]: 5630 MFI

CD80 M38T/L70Q/E77G/A91G/I118V/T120S/T130A/N152T ECD-Fc (Fc fusion)
MFI (CD28 (human) [10]): 61 MFI

CD80 IgV-Fc H18Y/E35D/M47L/V68M/E95V/L97Q (Fc fusion)
MFI at 33.3 nM (CD28 (human) [4]): 2600 MFI
MFI at 33.3 nM (human CTLA-4 (human) [5]): 18000 MFI
MFI at 33.3 nM (PD-L1 (human) [6]): 9630 MFI

CD80 IgV-Fc H18Y/E35D/V68M/L85M/R94Q (Fc fusion)
Fold change to WT CD80 (CD28 (human) [4]): 23.3 fold
MFI at 33.3 nM (CD28 (human) [4]): 962 MFI
MFI at 33.3 nM (human CTLA-4 (human) [5]): 22000 MFI
Fold change to WT CD80 (PD-L1 (human) [6]): 131 fold
MFI at 33.3 nM (PD-L1 (human) [6]): 9280 MFI

variant CD80 IgV-Fc E35D/D46E/A91G (Fc fusion)
MFI at 33.3 nM [7]: 3450 MFI
MFI at 33.3 nM [9]: 32200 MFI
MFI at 33.3 nM [8]: 2820 MFI

CD80 WT IgV-Fc (Fc fusion)
MFI at 33.3 nM (PD-L1 (human) [11]): 43.6 MFI
MFI at 33.3 nM (CD28 (human) [12]): 43.9 MFI
MFI at 33.3 nM (human CTLA-4 (human) [13]): 1030 MFI
MFI at 33.3 nM (human CTLA-4 (human) [14]): 26400 MFI
MFI at 33.3 nM (CD28 (human) [4]): 41.2 MFI
MFI at 33.3 nM (PD-L1 (human) [15]): 83 MFI
MFI at 33.3 nM [7]: 66 MFI
MFI at 33.3 nM [9]: 1920 MFI
MFI at 33.3 nM (PD-L1 (human) [16]): 44 MFI
MFI at 33.3 nM [8]: 70.3 MFI
MFI at 33.3 nM (human CTLA-4 (human) [5]): 1040 MFI
MFI at 33.3 nM (human CTLA-4 (human) [17]): 1360 MFI
MFI at 33.3 nM (CD28 (human) [18]): 95 MFI
MFI at 33.3 nM (CD28 (human) [18]; record 2): 41 MFI
MFI at 33.3 nM (PD-L1 (human) [6]): 70.9 MFI

variant CD80 IgV-Fc E35D/M43I/M47V/K89N (Fc fusion)
MFI at 33.3 nM (PD-L1 (human) [19]): 19200 MFI
MFI at 33.3 nM (human CTLA-4 (human) [20]): 278000 MFI

CD80 Y31H/T41G/M43L/L70Q/A91G/I118V/T120S/I126V/T130A ECD-Fc (Fc fusion)
MFI (PD-L1 (human) [21]): 6 MFI

CD80 A91G ECD-Fc (Fc fusion)
MFI (human CTLA-4 (human) [22]): 200 MFI
MFI (PD-L1 (human) [21]): 85 MFI
parental ratio (PD-L1 (human) [21]): 1.21

variant CD80 IgV-Fc Q33R/E35D/M47V/N48K/L85M/F92L (Fc fusion)
MFI at 33.3 nM (PD-L1 (human) [19]): 21400 MFI
MFI at 33.3 nM (human CTLA-4 (human) [20]): 2680 MFI

variant CD80 IgV-Fc E35D/M47L/A71G (Fc fusion)
MFI at 33.3 nM [9]: 20600 MFI
MFI at 33.3 nM [8]: 6640 MFI

CD80 V20L/L70Q/A91S/I118V/T120S/T130A ECD-Fc (Fc fusion)
MFI (human CTLA-4 (human) [22]): 200 MFI
parental ratio (human CTLA-4 (human) [22]): 0.96
MFI (CD28 (human) [10]): 105 MFI
MFI (PD-L1 (human) [21]): 9 MFI
parental ratio (PD-L1 (human) [21]): 0.13

WT CD80 ECD-Fc (Example 25) (Fc fusion)
MFI (PD-L1 (human) [21]): 70 MFI

variant CD80 IgV-Fc E35D/M47V/T62S/L85Q (Fc fusion)
MFI at 33.3 nM [7]: 99.4 MFI
MFI at 33.3 nM [9]: 31200 MFI

variant CD80 IgV-Fc E35D/M38T/D46E/M47V/N48S (Fc fusion)
MFI at 33.3 nM (PD-L1 (human) [19]): 19400 MFI
